From the supplement of paper PMC10126150
± gives the standard deviation of the averaged measurements.

Tested on: ATP
Experiment: switch fluorescence ratio, 500 uM ATP over buffer (Cy3 cluster intensity, sum of 5 cycles each) (fold (ratio)); higher = stronger signal-on switching upon ATP binding; sequences stand for … in TCGTCGGCAGCGTCAGATGTGTATAAGAGACAGTTTTTTTTTTTTTTTTTTTTTTTTT…TC
Settings: aptamer strand: ATP DNA aptamer (quencher-CACCTGGGGGAGTATTGCGGAGGAAGG + anchor), 100 nM annealed; ATP concentration: 500 uM
Method in brief: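 Exposure to 500 uM ATP lasted 15 min at 22 °C before imaging, and a selection-buffer image was taken beforehand, for Cy3-labelled switching-strand clusters on a modified Illumina MiSeq flow-cell annealed to 100 nM quencher-labelled ATP aptamer. Five buffer/ATP cycles were run with NaOH stripping and re-annealing between them. The fluorescence ratio per cluster is summed target-cycle over summed buffer-cycle Cy3 intensity, averaged per switch-domain sequence. Clusters outside 100-1000 RFU were excluded.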

| Sequence | switch fluorescence ratio |
| --- | --- |
| GGTGTCTGCA | 0.9931 ± 0.0019 |
| ACATACGAGT | 1.38 ± 0.029 |
| TAAGGTTCTC | 0.96 ± 0.015 |
| ATACTGTTAC | 1.359 ± 0.0057 |
| ATTATGATGC | 0.992 ± 0.014 |
| GATTCTTGAA | 1.01 ± 0.22 |
| CCTGGGGAAA | 0.946 ± 0.021 |
| AGGTGACGGT | 0.9809 ± 0.0085 |
| ATTGTGTCTA | 0.9935 ± 0.007 |
| TAATAAGTA | 0.97 ± 0.012 |
| CGTTGTTAGC | 0.992 ± 0.022 |
| CTTCTTGCTG | 0.972 ± 0.011 |
| AGGTTAGGGT | 0.969 ± 0.015 |
| TGAATTTTTT | 0.993 ± 0.028 |
| CAGGGGCAAT | 2.7 ± 0.12 |
| CCCGGGAATC | 1.06 ± 0.059 |
| GTACGGGGGA | 1.002 ± 0.0056 |
| TGATCTAGGC | 0.98 ± 0.074 |
| GGGGGTGGTA | 0.99 ± 0.045 |
| ACTTGGCATC | 1.13 ± 0.043 |
| GCATATGGTT | 0.988 ± 0.016 |
| AAAGGACGTG | 0.9356 ± 0.0076 |
| TATGTTTATT | 1.03 ± 0.011 |
| TCGCGTTTTT | 0.994 ± 0.031 |
| TTAGGACGAT | 0.997 ± 0.051 |
| TGGAGGGATG | 1.01 ± 0.054 |

| Sequence | switch fluorescence ratio |
| --- | --- |
| TCTTGAATGG | 0.986 ± 0.0051 |
| AGGGGCGGGG | 0.995 ± 0.029 |
| GGCAAATCGG | 0.995 ± 0.014 |
| GGTGGACACT | 1.03 ± 0.024 |
| ACATAATTTC | 1.03 ± 0.02 |
| TTTTGATGG | 0.995 ± 0.036 |
| TGCTTGGGGG | 0.979 ± 0.016 |
| TTGCACCCGT | 1.04 ± 0.053 |
| AAGGGCCGCG | 1 ± 0.017 |
| ATACTCTGTT | 0.9926 ± 0.0031 |
| AACGCGAACG | 1.06 ± 0.016 |
| TATGGATGGC | 1.01 ± 0.058 |
| TAGGGGGAAT | 1.01 ± 0.054 |
| CATTTGTGTT | 1.02 ± 0.046 |
| TAATTTATAC | 1.053 ± 0.0054 |
| TTTTTAAAAT | 1.08 ± 0.22 |
| CGTCACGGGA | 1.05 ± 0.036 |
| AAGTACTAGC | 1.212 ± 0.0086 |
| CAGCTTGTTT | 1.01 ± 0.02 |
| GATCATTCTG | 0.966 ± 0.036 |
| TTTTGTTACT | 1.01 ± 0.026 |
| ATCAAGGGTT | 0.991 ± 0.025 |
| GATGTGATTC | 1.04 ± 0.027 |
| GGTTTAGTTT | 0.99 ± 0.035 |
| TTAAAAGCAG | 1.016 ± 0.0045 |
| CGGGACAGTG | 0.957 ± 0.024 |

| Sequence | switch fluorescence ratio |
| --- | --- |
| TGAAAATTGA | 0.999 ± 0.017 |
| CAATGATGAC | 1.01 ± 0.018 |
| TTGGTGGGCA | 0.993 ± 0.038 |
| AGCGGTCGGC | 1.04 ± 0.018 |
| GGGTAGGCGG | 0.941 ± 0.029 |
| CGAACAGCGA | 1.27 ± 0.015 |
| ATGGGAGGGC | 0.9698 ± 0.0059 |
| GGCTAATGGG | 1.021 ± 0.0043 |
| TATGGGCATT | 0.998 ± 0.016 |
| ACCTTTACGT | 1.17 ± 0.033 |
| AATAATGCTT | 0.978 ± 0.014 |
| TTTTGGTTTA | 1 ± 0.011 |
| GTGTAAAGTG | 0.949 ± 0.047 |
| CCTGGCTATC | 3.44 ± 0.91 |
| TGATGTTAGC | 1.03 ± 0.036 |
| CGGTTAGGGA | 0.965 ± 0.03 |
| TCGAGTCGTG | 0.9922 ± 0.0054 |
| CGCTCGTGCG | 1 ± 0.017 |
| AGGTCGTCGT | 0.955 ± 0.017 |
| ATCCGAAGAT | 1.04 ± 0.016 |
| AAACGAAGGA | 1.09 ± 0.069 |
| ATACGGGGTT | 1.008 ± 0.0032 |
| CCATTATAT | 0.982 ± 0.043 |
| CATGGTGTGG | 1.01 ± 0.031 |
| TATGTGTCAG | 0.977 ± 0.012 |
| TATGCTTTGG | 0.98 ± 0.03 |

| Sequence | switch fluorescence ratio |
| --- | --- |
| CGGGTCTTGG | 1.03 ± 0.023 |
| GTCACACTT | 1.01 ± 0.0073 |
| ATTGTGATCT | 0.989 ± 0.021 |
| CAGATTTGTT | 0.992 ± 0.018 |
| CAGGGTGGGG | 1.03 ± 0.048 |
| TGAGAGACGG | 0.968 ± 0.063 |
| TGCGTGTTGA | 1.04 ± 0.0081 |
| CTATGTGGTG | 1.02 ± 0.054 |
| GCTCCTCACA | 1.67 ± 0.2 |
| AAAGGTAAGG | 0.965 ± 0.016 |
| TCTTCCTGGA | 1.08 ± 0.039 |
| GCGGTACGCG | 0.953 ± 0.012 |
| AGGAATATGG | 1.04 ± 0.1 |
| GGCTCCGGCG | 1.04 ± 0.032 |
| CAGAGTGGGA | 1.03 ± 0.016 |
| AGGAAAAAGG | 0.974 ± 0.034 |
| GGGTGGATGA | 1.03 ± 0.042 |
| CCGTTATGCA | 1.26 ± 0.018 |
| CTGGTGTTCT | 1.01 ± 0.017 |
| GTGTGGTGTT | 0.986 ± 0.016 |
| AGCAAAGAGC | 0.99 ± 0.037 |
| ATGAGTCTTT | 0.9801 ± 0.0079 |
| TAAATGATTT | 1.01 ± 0.014 |
| TTTAACCTGC | 1.06 ± 0.011 |
| CAATCAGGAC | 1.06 ± 0.041 |
| CGAATTTGTC | 1.02 ± 0.035 |

| Sequence | switch fluorescence ratio |
| --- | --- |
| TCTTTGTTAC | 1.05 ± 0.022 |
| ATGTTAAGAG | 0.9766 ± 0.0089 |
| TTCGGATATT | 1.13 ± 0.23 |
| TTGGGCTCAG | 0.982 ± 0.013 |
| CGATGGCTGG | 0.976 ± 0.027 |
| ATGTGCAATA | 1.94 ± 0.082 |
| TGAGATGCGG | 1.03 ± 0.038 |
| CTGGGTTTAA | 1.02 ± 0.013 |
| TTTTTCCATA | 1 ± 0.022 |
| GTATTTTAGG | 0.999 ± 0.053 |
| GATCGTAATT | 1.06 ± 0.0044 |
| TAACGGCGCG | 1.028 ± 0.0024 |
| ACGCAATGAT | 5.18 ± 0.069 |
| TCCAATTGGA | 0.9855 ± 0.0021 |
| ATTGGTTGTT | 1.01 ± 0.036 |
| ATAAGTAAAG | 1.01 ± 0.021 |
| ATGCGGGCCC | 0.99 ± 0.012 |
| TATGTACACA | 1.02 ± 0.059 |
| CAATAAAGGT | 1.08 ± 0.18 |
| TGAGGTTAAC | 0.957 ± 0.023 |
| ATGAAATCTG | 1.06 ± 0.074 |
| CTAAGTTCCG | 1.015 ± 0.01 |
| TGAAACTTGA | 1.042 ± 0.0055 |
| GGGGGTGGCC | 0.952 ± 0.098 |
| ATAACTTATA | 1.011 ± 0.0041 |
| GCACATTGCT | 1.02 ± 0.013 |

| Sequence | switch fluorescence ratio |
| --- | --- |
| GGTCAGTGAT | 1.01 ± 0.06 |
| TTTTCATTTT | 1.05 ± 0.11 |
| CAAATGGGCC | 0.993 ± 0.019 |
| GAGGGTCTCT | 0.98005 ± 0.00068 |
| TAAAAATCGA | 0.993 ± 0.0013 |
| GGGGTTCTTT | 1.09 ± 0.14 |
| ATATATTCC | 1.1 ± 0.019 |
| TTTATGAGTG | 0.997 ± 0.031 |
| GAATGTCTGC | 0.99 ± 0.037 |
| GTCGAATGGG | 1 ± 0.02 |
| TTTATCGTGG | 0.9721 ± 0.002 |
| TAGTATGTTT | 1.004 ± 0.0061 |
| AGGGGGCAGA | 1.03 ± 0.05 |
| TCGGTTAGTA | 0.9883 ± 0.0021 |
| AATTATTTTT | 0.9867 ± 0.0061 |
| AGGCTTGGGC | 0.971 ± 0.012 |
| TGGGGAGAAA | 1 ± 0.031 |
| GGTAAAAGCT | 1.03 ± 0.057 |
| GCCATCGAAT | 1 ± 0.021 |
| AACGGAGAGC | 1.034 ± 0.01 |
| ATGTTTCGGT | 0.9918 ± 0.0073 |
| GAAGCTGCCA | 1.031 ± 0.0067 |
| GTGATGCAGG | 0.98 ± 0.026 |
